According to patent US20180194851A1 (Pfizer, published 2018):
Changes are numbered by the printed parent chain. Blank lines part the entries; values can stand above or below the binder they belong to.

What was measured:
[1] = target: T1, Recombinant human 4-1BB/Fc Chimera (R&D Systems #838-4B) (human, UniProt Q07011 24-186); test: ELISA on directly coated human 4-1BB/Fc
T1 construct: Bought protein; also called Human 4-1BB IgG1Fc chimera; not shown: Factor Xa-cleavable junction, human IgG1 Fc and 6xHistidine tag of the bought chimera

human 4-1BB on cells [2] = target: T2, human 4-1BB on cells (human, UniProt Q07011 18-255); test: FACS on HEK293 cells expressing human 4-1BB
T2 construct: Expressed on stably transfected HEK293/HEK293T cells, transduced 300-19 cells or PHA stimulated human PBMC; also called h41BB; hu4-1BB

[3] = target: T3, human 4-1BB (recombinant antigen, construct not stated) (human, UniProt Q07011 24-186); test: SPR (Biacore 3000), Fab analyte on amine-coupled human 4-1BB
T3 construct: It may be the 4-1BB/Fc chimera; also called CD137/HUMAN 4-1BB; unlabeled human 4-1BB

[4] = target: T3, human 4-1BB (recombinant antigen, …); test: solution equilibrium titration (SET), MSD electrochemiluminescence
human 4-1BB on cells [5] = target: T2, human 4-1BB on cells; test: FACS on transfected cells
Hu41BB N&E.5 [6] = target: T4, Hu41BB N&E.5 (human, UniProt Q07011 18-255); test: FACS dose response on 300-19 cell pools
T4 construct: Human-to-dog mutant of the human 4-1BB extracellular domain, expressed on transduced 300-19 cells; also called 4-1BB Mutant N&E.5
T4 chain: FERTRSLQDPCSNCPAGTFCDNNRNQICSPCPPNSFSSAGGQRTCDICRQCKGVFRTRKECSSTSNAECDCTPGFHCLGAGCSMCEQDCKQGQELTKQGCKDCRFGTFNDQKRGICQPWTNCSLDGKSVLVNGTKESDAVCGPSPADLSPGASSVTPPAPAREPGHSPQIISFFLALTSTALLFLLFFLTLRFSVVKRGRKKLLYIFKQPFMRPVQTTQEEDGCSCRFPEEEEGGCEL

CD40 on 300.19 cells = target: T5, CD40 on 300.19 cells (UniProt P25942 21-277, limits assumed); test: FACS on 300.19 cells expressing CD40
T5 construct: whole, on cells; also called TNFRSF5; 300.19 CD40

OX-40 on 300.19 cells = target: T6, OX-40 on 300.19 cells (UniProt P43489 29-277, limits assumed); test: FACS on 300.19 cells expressing OX-40
T6 construct: whole, on cells; also called CD134; TNFRSF4
T6 sequence (looked up): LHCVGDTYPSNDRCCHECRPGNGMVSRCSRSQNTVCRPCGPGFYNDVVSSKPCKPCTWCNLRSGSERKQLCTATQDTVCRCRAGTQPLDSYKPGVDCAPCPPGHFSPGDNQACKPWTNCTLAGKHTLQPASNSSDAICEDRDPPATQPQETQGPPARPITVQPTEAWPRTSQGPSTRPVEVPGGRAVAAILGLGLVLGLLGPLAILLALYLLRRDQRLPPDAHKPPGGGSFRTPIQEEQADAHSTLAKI

[7] = target: T1, Recombinant human 4-1BB/Fc Chimera (R&D …); test: ELISA on coated human 4-1BB IgG1Fc chimera
[8] = target: T1, Recombinant human 4-1BB/Fc Chimera (R&D …); test: ELISA on directly coated human 4-1BB/Fc, IgG1
human 4-1BB on cells [9] = target: T2, human 4-1BB on cells; test: FACS on HEK293T cells expressing human 4-1BB, IgG1
Hu41BB N&E = target: T7, Hu41BB N&E (human, UniProt Q07011 18-255); test: FACS, 100 nM antibody, transduced 300-19 cell pools
T7 construct: Human-to-dog mutant of the human 4-1BB extracellular domain, expressed on transduced 300-19 cells
T7 chain: T4 chain with N13K, A39T, G40S, R43K, T44A, Q98K, R104C, Q117R, S137R, A139V

Hu41BB N&E.1 = target: T8, Hu41BB N&E.1 (human, UniProt Q07011 18-255); test: as above
T8 construct: Human-to-dog mutant of the human 4-1BB extracellular domain, expressed on transduced 300-19 cells
T8 chain: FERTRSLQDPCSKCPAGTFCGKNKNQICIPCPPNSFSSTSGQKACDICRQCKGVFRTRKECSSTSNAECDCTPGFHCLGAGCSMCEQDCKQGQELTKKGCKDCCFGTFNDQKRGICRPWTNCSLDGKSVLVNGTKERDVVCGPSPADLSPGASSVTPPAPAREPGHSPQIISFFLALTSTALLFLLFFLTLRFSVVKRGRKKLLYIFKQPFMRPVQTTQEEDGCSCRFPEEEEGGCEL

Hu41BB N&E.2 = target: T9, Hu41BB N&E.2 (human, UniProt Q07011 18-255); test: as above
T9 construct: Human-to-dog mutant of the human 4-1BB extracellular domain, expressed on transduced 300-19 cells
T9 chain: T8 chain with G21D, K22N, K24R, I29S, K52E, R58K, E60V

Hu41BB N&E.3 = target: T10, Hu41BB N&E.3 (human, UniProt Q07011 18-255); test: as above
T10 construct: Human-to-dog mutant of the human 4-1BB extracellular domain, expressed on transduced 300-19 cells
T10 chain: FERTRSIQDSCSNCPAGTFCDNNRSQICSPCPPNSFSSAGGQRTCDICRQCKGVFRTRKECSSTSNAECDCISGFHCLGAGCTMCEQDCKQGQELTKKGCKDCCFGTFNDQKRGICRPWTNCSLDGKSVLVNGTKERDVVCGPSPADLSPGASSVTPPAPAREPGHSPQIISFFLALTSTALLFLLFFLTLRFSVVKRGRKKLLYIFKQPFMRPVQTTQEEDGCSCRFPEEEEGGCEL

Hu41BB N&E.4 = target: T11, Hu41BB N&E.4 (human, UniProt Q07011 18-255); test: as above
T11 construct: Human-to-dog mutant of the human 4-1BB extracellular domain, expressed on transduced 300-19 cells
T11 chain: T8 chain with L7I, P10S, N25S, K52E, R58K, E60V, T72I, P73S, S83T

Hu41BB N&E.6 = target: T12, Hu41BB N&E.6 (human, UniProt Q07011 18-255); test: as above
T12 construct: Human-to-dog mutant of the human 4-1BB extracellular domain, expressed on transduced 300-19 cells
T12 chain: T4 chain with Q98K, R104C, Q117R, S137R, A139V, S144A, P145S, D147G, L148F, A152T

[10] = target: T13, human 4-1BB extracellular portion, amino acids 24-186 (Fc cleaved off with Factor Xa) (human, UniProt Q07011 24-186); test: SPR (Biacore 3000), antibody amine-coupled, 4-1BB 24-186 as analyte, 25 C
T13 construct: Made from the R&D Systems 4-1BB/Fc chimera by Factor Xa cleavage; also called recombinant human 4-1BB; the 4-1BB

[11] = target: T1, Recombinant human 4-1BB/Fc Chimera (R&D …); test: ligand competition ELISA, 4-1BB_IgG1Fc to plate-bound 4-1BBL (competitor 4-1BBL)
human 4-1BB on cells [12] = target: T2, human 4-1BB on cells; test: FACS dose response, Alexa Fluor 647 labelled antibody on 300-19 cells expressing human 4-1BB
Hu41BB N&E.5 [13] = target: T4, Hu41BB N&E.5; test: FACS dose response, Alexa Fluor 647 labelled antibody on 300-19 cells expressing mutant N&E.5

T5 sequence (P25942 21-277 limits assumed): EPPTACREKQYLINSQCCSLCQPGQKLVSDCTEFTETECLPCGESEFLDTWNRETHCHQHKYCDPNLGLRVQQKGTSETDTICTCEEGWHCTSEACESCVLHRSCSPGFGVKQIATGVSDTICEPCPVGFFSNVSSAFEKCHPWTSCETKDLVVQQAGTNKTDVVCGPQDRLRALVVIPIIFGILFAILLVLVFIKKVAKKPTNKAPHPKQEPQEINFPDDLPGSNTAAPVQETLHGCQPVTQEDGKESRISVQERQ

- EC50 [1]: 0.7 nM
- EC50 (human 4-1BB on cells [2]): 0.9 nM
- Kd [3]: 0.5 nM
- Kd [4]: 0.046 nM
B1: Fab-7480 (Fab, V domains shown)
VH: QVQLVQSGAEVKKPGESLKISCKGSGYSFSTYWISWVRQMPGKGLEWMGKIYPGDSYTNYSPSFQGQVTISADKSISTAYLQWSSLKASDTAMYYCARGYGIFDYWGQGTLVTVSS
VL: DIELTQPPSVSVAPGQTARISCSGDNIGDQYAHWYQQKPGQAPVVVIYQDKNRPSGIPERFSGSNSGNTATLTISGTQAEDEADYYCATYTGFGSLAVFGGGTKLTVL

- fold selectivity for 4-1BB versus OX-40 and CD40 (human 4-1BB on cells [5]): ≥ 100 fold
- fold decrease in binding against human 4-1BB (Hu41BB N&E.5 [6]): > 5 fold
- binding result (CD40 on 300.19 cells): no binding (tested: 1000 nM)
- binding result (OX-40 on 300.19 cells): no binding (tested: 1000 nM)
- EC50 [7]: 0.076 nM
- EC50 [8]: 0.7 nM
- EC50 (human 4-1BB on cells [9]): 0.6 nM
- binding result (Hu41BB N&E): binds
- binding result (Hu41BB N&E.1): binds
- binding result (Hu41BB N&E.2): binds
- binding result (Hu41BB N&E.3): binds
- binding result (Hu41BB N&E.4): binds
- binding result (Hu41BB N&E.6): binds
- Kd [10]: 0.42 nM
- koff [10]: 0.00015 s⁻¹
- kon [10]: 360000 M⁻¹ s⁻¹
- t1/2 [10]: 1.37 h
- % max inhibition [11]: 96%
- IC50 [11]: 0.122 nM
- EC50 (human 4-1BB on cells [12]): 1.68 nM
- EC50 (Hu41BB N&E.5 [13]): 12.3 nM
B2: MOR-7480 (IgG1) (antibody, V domains shown)
VH: B1 VH
VL: B1 VL
notes: Human IgG1 format, lambda light chain
